Source: the supplement of paper PMC10567573

B1: DLC1 (parent)
chain: HVTHWMGQPFNSDDRNTACHHGLV
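Further: lentivirally expressed fusions sorted by FACS into six bins by GFP to DsRed ratio, PSI derived from sequencing read proportions per bin multiplied by bin number.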

Variants of: B1
Assay: protein stability index of a GFP-peptide fusion (GPS, HEK-293T) (PSI 1-6); higher = more stable
Settings: c terminus: a fixed tail appended
Work on HVTHWMGQAFNSDDRNTACHHGLV yielded a protein stability index of 2.36.
HVTHWMGQCFNSDDRNTACHHGLV showed a protein stability index of 1.75.
Work on HVTHWMGQDFNSDDRNTACHHGLV yielded a protein stability index of 1.99.
For HVTHWMGQEFNSDDRNTACHHGLV, the protein stability index was 2.3.
In the case of HVTHWMGQFFNSDDRNTACHHGLV, the protein stability index is reported as 1.43.
In the case of HVTHWMGQGFNSDDRNTACHHGLV, the protein stability index is reported as 1.88.
For HVTHWMGQHFNSDDRNTACHHGLV, the protein stability index was 2.23.
Work on HVTHWMGQIFNSDDRNTACHHGLV yielded a protein stability index of 1.75.
In the case of HVTHWMGQKFNSDDRNTACHHGLV, the protein stability index is reported as 1.9.
Variant HVTHWMGQLFNSDDRNTACHHGLV has a protein stability index of 2.
Work on HVTHWMGQMFNSDDRNTACHHGLV yielded a protein stability index of 2.38.
Work on HVTHWMGQNFNSDDRNTACHHGLV yielded a protein stability index of 2.2.
In the case of HVTHWMGQQFNSDDRNTACHHGLV, the protein stability index is reported as 2.4.
HVTHWMGQRFNSDDRNTACHHGLV gave a protein stability index of 2.21.
For HVTHWMGQSFNSDDRNTACHHGLV, the protein stability index was 2.06.
For HVTHWMGQTFNSDDRNTACHHGLV, the protein stability index was 2.29.
Variant HVTHWMGQVFNSDDRNTACHHGLV has a protein stability index of 1.55.
For HVTHWMGQWFNSDDRNTACHHGLV, the protein stability index was 1.6.
Work on HVTHWMGQYFNSDDRNTACHHGLV yielded a protein stability index of 2.43.
Variant HVTHWMGQPANSDDRNTACHHGLV has a protein stability index of 2.53.
In the case of HVTHWMGQPCNSDDRNTACHHGLV, the protein stability index is reported as 1.94.
HVTHWMGQPDNSDDRNTACHHGLV showed a protein stability index of 3.03.
HVTHWMGQPENSDDRNTACHHGLV showed a protein stability index of 2.75.
For HVTHWMGQPGNSDDRNTACHHGLV, the protein stability index was 2.77.
With HVTHWMGQPHNSDDRNTACHHGLV the protein stability index was 2.05.
Variant HVTHWMGQPINSDDRNTACHHGLV has a protein stability index of 2.04.
For HVTHWMGQPKNSDDRNTACHHGLV, the protein stability index was 2.78.
In the case of HVTHWMGQPLNSDDRNTACHHGLV, the protein stability index is reported as 2.01.
With HVTHWMGQPMNSDDRNTACHHGLV the protein stability index was 2.53.
With HVTHWMGQPNNSDDRNTACHHGLV the protein stability index was 2.86.
Work on HVTHWMGQPPNSDDRNTACHHGLV yielded a protein stability index of 2.54.
Variant HVTHWMGQPQNSDDRNTACHHGLV has a protein stability index of 2.5.
In the case of HVTHWMGQPRNSDDRNTACHHGLV, the protein stability index is reported as 2.79.
In the case of HVTHWMGQPSNSDDRNTACHHGLV, the protein stability index is reported as 2.35.
HVTHWMGQPTNSDDRNTACHHGLV gave a protein stability index of 2.29.
In the case of HVTHWMGQPVNSDDRNTACHHGLV, the protein stability index is reported as 2.36.
HVTHWMGQPWNSDDRNTACHHGLV gave a protein stability index of 1.93.
With HVTHWMGQPYNSDDRNTACHHGLV the protein stability index was 1.92.
With HVTHWMGQPFASDDRNTACHHGLV the protein stability index was 2.07.
With HVTHWMGQPFCSDDRNTACHHGLV the protein stability index was 2.17.
HVTHWMGQPFDSDDRNTACHHGLV showed a protein stability index of 2.58.
Variant HVTHWMGQPFESDDRNTACHHGLV has a protein stability index of 2.58.
Work on HVTHWMGQPFFSDDRNTACHHGLV yielded a protein stability index of 1.65.
HVTHWMGQPFGSDDRNTACHHGLV gave a protein stability index of 2.13.
HVTHWMGQPFHSDDRNTACHHGLV showed a protein stability index of 1.8.
With HVTHWMGQPFISDDRNTACHHGLV the protein stability index was 1.94.
HVTHWMGQPFKSDDRNTACHHGLV gave a protein stability index of 1.86.
Work on HVTHWMGQPFLSDDRNTACHHGLV yielded a protein stability index of 2.14.
HVTHWMGQPFMSDDRNTACHHGLV gave a protein stability index of 2.07.
HVTHWMGQPFPSDDRNTACHHGLV showed a protein stability index of 2.3.
With HVTHWMGQPFQSDDRNTACHHGLV the protein stability index was 2.23.
For HVTHWMGQPFRSDDRNTACHHGLV, the protein stability index was 2.17.
Work on HVTHWMGQPFSSDDRNTACHHGLV yielded a protein stability index of 1.69.
In the case of HVTHWMGQPFTSDDRNTACHHGLV, the protein stability index is reported as 2.02.
Variant HVTHWMGQPFVSDDRNTACHHGLV has a protein stability index of 2.62.
HVTHWMGQPFWSDDRNTACHHGLV showed a protein stability index of 3.88.
HVTHWMGQPFYSDDRNTACHHGLV showed a protein stability index of 2.26.
HVTHWMGQPFNADDRNTACHHGLV showed a protein stability index of 2.02.
In the case of HVTHWMGQPFNCDDRNTACHHGLV, the protein stability index is reported as 1.51.
With HVTHWMGQPFNDDDRNTACHHGLV the protein stability index was 2.62.
Variant HVTHWMGQPFNEDDRNTACHHGLV has a protein stability index of 2.52.
For HVTHWMGQPFNFDDRNTACHHGLV, the protein stability index was 1.85.
With HVTHWMGQPFNGDDRNTACHHGLV the protein stability index was 2.34.
Variant HVTHWMGQPFNHDDRNTACHHGLV has a protein stability index of 2.04.
HVTHWMGQPFNIDDRNTACHHGLV gave a protein stability index of 2.05.
With HVTHWMGQPFNKDDRNTACHHGLV the protein stability index was 2.51.
With HVTHWMGQPFNLDDRNTACHHGLV the protein stability index was 2.11.
Work on HVTHWMGQPFNMDDRNTACHHGLV yielded a protein stability index of 2.61.
In the case of HVTHWMGQPFNNDDRNTACHHGLV, the protein stability index is reported as 2.55.
With HVTHWMGQPFNPDDRNTACHHGLV the protein stability index was 2.29.
HVTHWMGQPFNQDDRNTACHHGLV gave a protein stability index of 1.98.
Work on HVTHWMGQPFNRDDRNTACHHGLV yielded a protein stability index of 2.01.
HVTHWMGQPFNTDDRNTACHHGLV showed a protein stability index of 2.02.
HVTHWMGQPFNVDDRNTACHHGLV gave a protein stability index of 1.8.
HVTHWMGQPFNWDDRNTACHHGLV gave a protein stability index of 1.92.
Variant HVTHWMGQPFNYDDRNTACHHGLV has a protein stability index of 1.78.
HVTHWMGQPFNSADRNTACHHGLV gave a protein stability index of 1.48.
For HVTHWMGQPFNSCDRNTACHHGLV, the protein stability index was 1.8.
Work on HVTHWMGQPFNSEDRNTACHHGLV yielded a protein stability index of 2.07.
With HVTHWMGQPFNSFDRNTACHHGLV the protein stability index was 1.81.
HVTHWMGQPFNSGDRNTACHHGLV gave a protein stability index of 2.
For HVTHWMGQPFNSHDRNTACHHGLV, the protein stability index was 1.77.
HVTHWMGQPFNSIDRNTACHHGLV gave a protein stability index of 1.92.
For HVTHWMGQPFNSKDRNTACHHGLV, the protein stability index was 2.32.
In the case of HVTHWMGQPFNSLDRNTACHHGLV, the protein stability index is reported as 2.05.
With HVTHWMGQPFNSMDRNTACHHGLV the protein stability index was 1.13.
In the case of HVTHWMGQPFNSNDRNTACHHGLV, the protein stability index is reported as 2.11.
In the case of HVTHWMGQPFNSPDRNTACHHGLV, the protein stability index is reported as 2.14.
With HVTHWMGQPFNSQDRNTACHHGLV the protein stability index was 1.62.
With HVTHWMGQPFNSRDRNTACHHGLV the protein stability index was 1.62.
With HVTHWMGQPFNSSDRNTACHHGLV the protein stability index was 1.72.
Variant HVTHWMGQPFNSTDRNTACHHGLV has a protein stability index of 1.94.
For HVTHWMGQPFNSVDRNTACHHGLV, the protein stability index was 1.37.
In the case of HVTHWMGQPFNSWDRNTACHHGLV, the protein stability index is reported as 1.6.
